Article PMC5414179, “Functional characterization of a multi-cancer risk locus on chr5p15.33 reveals regulation of TERT by ZNF148”

Target: T1, ZNF148 (ZBP-89), recombinant (Homo sapiens, UniProt Q9UQR1 1-794)
T1 sequence: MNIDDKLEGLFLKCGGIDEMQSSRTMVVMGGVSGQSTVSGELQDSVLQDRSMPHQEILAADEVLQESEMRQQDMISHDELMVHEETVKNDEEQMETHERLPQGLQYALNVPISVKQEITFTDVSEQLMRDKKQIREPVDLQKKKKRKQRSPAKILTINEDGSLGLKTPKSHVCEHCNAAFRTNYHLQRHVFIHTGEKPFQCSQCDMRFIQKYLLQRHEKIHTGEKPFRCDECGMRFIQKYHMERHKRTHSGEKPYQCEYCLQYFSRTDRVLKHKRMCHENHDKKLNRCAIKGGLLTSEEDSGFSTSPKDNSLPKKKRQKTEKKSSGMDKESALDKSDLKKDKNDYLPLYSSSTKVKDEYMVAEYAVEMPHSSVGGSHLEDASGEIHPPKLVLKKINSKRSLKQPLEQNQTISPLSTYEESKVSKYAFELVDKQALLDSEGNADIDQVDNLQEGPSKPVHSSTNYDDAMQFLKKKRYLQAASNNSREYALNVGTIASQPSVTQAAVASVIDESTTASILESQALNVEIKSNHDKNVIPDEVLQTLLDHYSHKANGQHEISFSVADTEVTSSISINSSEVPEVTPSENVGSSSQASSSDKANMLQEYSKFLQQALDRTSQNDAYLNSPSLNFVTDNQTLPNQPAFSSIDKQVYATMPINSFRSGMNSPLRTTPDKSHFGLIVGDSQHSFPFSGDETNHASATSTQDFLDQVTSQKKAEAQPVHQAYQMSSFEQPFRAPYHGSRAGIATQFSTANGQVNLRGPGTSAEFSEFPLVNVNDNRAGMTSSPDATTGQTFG
Assay: EMSA; positive control; EMSA: 10 ug nuclear extract or 90-630 ng recombinant ZNF148 with 3'-biotin probe, 20 min on ice, 4-20% TBE gel; antibody preincubation 20 min at room temperature; buffer, salt and pH not stated
Details: protein: commercial; label: 3' biotin; blunt

B1: ZNF148 binding motif, CDKN1A/p21 promoter (dsDNA)
DNA 1: CGCAGGCGAGGGACTGGGGGAGGAGGGAAGTGCCC
DNA 2: GGGCACTTCCCTCCTCCCCCAGTCCCTCGCCTGCG
B1: binds.
